# B1: Guanyl-specific ribonuclease T1, P00651 (parent)
# chain: MMYSKLLTLTTLLLPTALALPSLVERACDYTCGSNCYSSSDVSTAQAAGYQLHEDGETVGSNSYPHKYNNYEGFDFSVSSPYYEWPILSSGDVYSGGSPGADRVVFNENNQLAGVITHTGASGNNFVECT
# Variants of: B1
# Conditions: Aspergillus oryzae (strain ATCC 42149 / RIB 40); pH 5; 10 °C; GdnHCl; Fluorescence; Sodium acetate 0.1 M; reversible: yes; structure 1RN1; whole UniProt chain shown
Variant,ddG of mutation (higher = less stable) [kcal/mol],denaturant m value [kcal/mol/M],denaturant midpoint (higher = more stable) [M]
P99V,-1.53,3.01,3.43

# Same assay, conditions: Aspergillus oryzae (strain ATCC 42149 / RIB 40); pH 8; 10 °C; GdnHCl; Fluorescence; PIPES 0.1 M; reversible: yes; structure 1RN1; whole UniProt chain shown
Variant,ddG of mutation (higher = less stable) [kcal/mol],denaturant m value [kcal/mol/M],denaturant midpoint (higher = more stable) [M]
P99V,-2.44,3.18,2.44

# Same assay, conditions: Aspergillus oryzae (strain ATCC 42149 / RIB 40); pH 8; 25 °C; GdnHCl; Fluorescence; PIPES 0.1 M; reversible: yes; structure 1RN1; whole UniProt chain shown
Variant,ddG of mutation (higher = less stable) [kcal/mol],denaturant m value [kcal/mol/M],denaturant midpoint (higher = more stable) [M]
P99V,-2.01,2.7,1.66

# Source: FireProtDB (doi:10.1111/j.1432-1033.1996.00516.x)
